Measured values: patent publication US20140147464A1, “METHOD AND COMPOSITION FOR INDUCING AUTOPHAGY” (NATIONAL YANG-MING UNIVERSITY, priority 2012, published 2014)

B1: NGF: Nerve growth factor; murine NGF (Promega) used as positive control (protein, UniProt P01139 122-241, looked up)
Beta-nerve growth factor: SSTHPVFHMGEFSVCDSVSVWVGDKTTATDIKGKEVTVLAEVNINNSVFRQYFFETKCRASNPVESGCRGIDSKHWNSYCTTTHTFVKALTTDEKQAAWRFIRIDTACVCVLSRKATRRG
modifications: Beta-nerve growth factor
notes: Nerve growth factor; murine NGF (Promega) used as positive control

How the values were obtained:
[1] = tested on: NGF; test: NGF expression and release in primary astrocyte cultures (RT-PCR, real time PCR, western blot); format: cell-based, C57BL/6J mice; conditions: primary astrocytes, 6 hours
Method: Astrocyte-enriched cultures were prepared from post-natal one day-old C57BL/6J mice obtained from the Animal Center at the National Yang Ming University, Taiwan. Briefly, cortical tissue was digested with trypsin. The resultant dissociated cells were suspended in DMEM containing 10% FBS and incubated in 100-mm culture dishes. After 3 days in culture, cells were re-fed with fresh 10% FBS/DMEM and maintained at 37° C. for an additional 3 days. The cells were dissociated with trypsin, suspended in 10% FBS/DMEM and incubated in a 10-cm dish for 7-8 days prior to use. Astrocytes prepared by this method consisted of approximately 90-95% astrocytes as determined by immunochemical staining with an antibody against glial fibrillary acidic protein (GFAP), a specific marker for astrocytes. Neural stem cell cultures were prepared from 1 day-old C57BL/6J mice. Cells obtained by trypsinization of cortical tissue were suspended in 100 ml DMEM/F12 medium (2×10^5 cells/ml) containing 1% N2, 20 ng/ml EGF, 20 ng/ml bFGF and […] BSA in 1 L roller bottles for 7 days for the formation of neurospheres. The neurospheres were examined with an antibody against nestin, a specific marker for neural stem cells. […]
RNA was prepared using RNA-Bee™ RNA isolation reagent (Tel-test, Friendswood, Tex.). […] Relative gene expression levels were calculated with the 2^−ΔΔCT method. […]

[2] = tested on: PC12 cells; test: PC12 bioassay of neurite outgrowth with astrocyte-conditioned medium; format: cell-based; conditions: 24 h
Method: To evaluate neurite outgrowth, PC12 cells were plated at a low density (2×10^4 cells per cm^2) onto poly-D lysine-coated 24-well plates. After 24 h, the adherent PC12 cells were washed with PBS and incubated with conditioned medium derived from either untreated or Ganoderma lucidum-treated astrocyte cultures to monitor neurite outgrowth (using a low serum condition in DMEM containing 1% FBS). Eight to ten images per group were photographed under light microscopy, and the percentage of cells with neurites that exceeded (the percentage of cells with neurites exceeding) the diameter of cell body was analyzed by examining 100-200 cells per image. Images were analyzed by an operator blinded to the experimental conditions. For the preparation of ACM, astrocytes were treated with Ganoderma lucidum for 24 hours and were washed with PBS and fed with low serum medium (without Ganoderma lucidum). After 24 hours, the medium was centrifuged at 200×g for 20 mins to remove cell debris, and the supernatant was collected as the ACM and used immediately. Murine NGF 100 ng/ml (Promega Biotech Co., Ltd, USA) was used as positive control.

[3] = tested on: mHtt74Q-expressing PC12 cell; test: mHtt-74Q aggregation in HD cell model by FACS analysis of EGFP fluorescence; format: cell-based
Method: (§1) Mammalian expression vectors comprising EGFP (pEGFP-C1, Clontech) fused at its C terminus with an HD gene exon 1 fragment with 74 polyglutamine repeats (mHtt-74Q) was a gift from Dr. David C. Rubinsztein's laboratory. The PC12 stable cells were maintained in 100 µg/ml hygromycin in standard medium consisting of DMEM with 100 U/ml penicillin/streptomycin, 2 mM L-glutamine, 10% heat-inactivated horse serum, 5% FBS and 200 ug/ml G418 at 37° C., 5% CO2. The cells were seeded at 2×10^5 per well in 12-well plates and were induced expression of mHtt-74Q with 200 ng/ml doxycycline for 24 h. The expression of transgenes was switched off by removing doxycycline from the medium. […] They were either fixed with 1% paraformaldehyde for 20 mins for FACS analysis (BD Biosciences) of EGFP fluorescence of mHtt-74Q followed by analysis of mean fluorescence intensity of 10,000 events by Cellquest software (BD Biosciences) or processed for real time PCR analysis. […] The samples were mounted and analyzed using a fluorescence microscope (Olympus IX-70 and POT2, USA) with excitation wave of 335 nm and emission of 525 nm. The intensity of the color staining reflected the level of autophagic activity, which was measured with an Image-Pro Plus Analysis system (Media Cybernetics, Bethesda, USA). To quantify MDC punctae, at least 4 random fields were imaged and the average number of punctae area per cell was calculated.

[4] = tested on: mHtt74Q-expressing PC12 cell; test: Autophagy in HD cell model: MDC staining and western blot of LC3-II; format: cell-based
Method: as §1, with “calculated. […]” for “calculated.”

Row | Molecule | NGF mRNA expression [1] | neurite outgrowth activity [2] | mHtt-74Q accumulation ([3]; HD cell model, FACS analysis) | fluorescence distribution of cells expressing mHtt-74Q (aggregates) ([3]; NGF 50 ng/ml) | MDC intensity [4] | autophagic activity (MDC staining, LC3-II western blot) [4]
1 | Ganoderic acid C2 | particularly marked | particularly marked |  |  |  | 
2 | B1 |  |  | reduction in mHtt-74Q accumulation | reduced aggregates | enhanced MDC stain | up-regulated
